# Values joined by “and” are separate entries in the source; they are usually repeats but may differ in a detail not shown here. Equal entries are not always repeated.
# Experiment: AlbuBChE serum pharmacokinetics after single IM dose (ELISA)
# Settings: for tmax: group value
# Protocol: The study included a total of 11 naïve, adult male cynomolgus monkeys divided into four dose groups: • a control group of two cynomologus monkeys that only received a single IV dose of cocaine; • three dose groups that were treated with a single IM dose of AlbuBChE at 0.2, 1 or 5 mg/kg. Three naïve, adult male cynomolgus monkeys were used in each dose group. Following AlbuBChE treatment, a 1 mg/kg IV dose of cocaine was administered at 2, 48, 96, 120, and 240 hours after AlbuBChE dose administration.
# A single intramuscular (IM) administration of AlbuBChE was administered on study day 1 and blood was collected at the time points outlined in Table 2. Approximately 0.5 mL of whole blood was collected from the femoral vein into serum separate tubes (SST).
# Blocking is done with 2% Casein in 1×PBS, 200 μL/well, 2 hours at room temperature. After washing, 100 μL of diluted serum samples are added to the plates along with standards. Standards are generated through 3.64 fold, serial dilution of AlbuBChE from 2000 to 3.1 ng/mL. Serum samples and standards are maintained at 10% serum by dilution with buffer containing pooled cynomolgus monkey serum. A wash step precedes detection with 100 μL of anti-HSA mAb-6502-HRP at 0.04 μg/mL for 1 hour. Wells are washed again, prior to developing with 100 μl of TMB substrate. After 15 minutes, the reaction is terminated with 100 μL/well of 1N H2SO4 and read on SpectraMax plate reader at 450/570 nm. Values for unknown serum samples are calculated by interpolation of standard curve generated by 4-parameter fit of AlbuBChE standards. The limit of quantitation in cynomolgus serum was 21.1 ng/mL.
# AlbuBChE pharmacokinetic parameter values were determined using serum concentration-time profiles for individual animals. The computer software WinNonlin Professional (Version 4.0.1 Pharsight Corporation, USA) was used. Specifically the model for non-compartmental analysis with extravascular input was applied. If there were fewer than 3 data points in the terminal phase of the serum concentration curve, a terminal phase half-life and PK parameters derived from the half-life were not calculated for that profile. Parameters analyzed include tmax, Cmax, t1/2, AUC(0-t) and AUC(0-∞) were calculated.
substance,measurement,setting,value
AlbuBChE,"AlbuBChE serum concentration, individual animals","1.0 mg/kg IM, 24 hr post dose",630.1 ng/mL and 673.8 ng/mL and 572.1 ng/mL
same,Mean AlbuBChE serum concentration,"1.0 mg/kg IM, 24 hr post dose",625 ng/mL
same,"AlbuBChE serum concentration, individual animals","1.0 mg/kg IM, 36 hr post dose",373.4 ng/mL and 471.7 ng/mL and 348.2 ng/mL
same,Mean AlbuBChE serum concentration,"1.0 mg/kg IM, 36 hr post dose",398 ng/mL
same,"AlbuBChE serum concentration, individual animals","1.0 mg/kg IM, 48 hr post dose",289.4 ng/mL and 362.7 ng/mL and 264.4 ng/mL
same,Mean AlbuBChE serum concentration,"1.0 mg/kg IM, 48 hr post dose",306 ng/mL
same,"AlbuBChE serum concentration, individual animals","1.0 mg/kg IM, 72 hr post dose",122.1 ng/mL and 235.0 ng/mL and 133.0 ng/mL
same,Mean AlbuBChE serum concentration,"1.0 mg/kg IM, 72 hr post dose",163 ng/mL
same,"AlbuBChE serum concentration, individual animals","1.0 mg/kg IM, 96 hr post dose",87.0 ng/mL and 131.7 ng/mL and 75.3 ng/mL
same,Mean AlbuBChE serum concentration,"1.0 mg/kg IM, 96 hr post dose",98.0 ng/mL
same,"AlbuBChE serum concentration, individual animals","1.0 mg/kg IM, 128 hr post dose",36.2 ng/mL and 72.0 ng/mL and 38.1 ng/mL
same,Mean AlbuBChE serum concentration,"1.0 mg/kg IM, 128 hr post dose",48.8 ng/mL
same,"AlbuBChE serum concentration, individual animals","1.0 mg/kg IM, 144 hr post dose",27.4 ng/mL and 47.7 ng/mL and 31.5 ng/mL
same,Mean AlbuBChE serum concentration,"1.0 mg/kg IM, 144 hr post dose",35.5 ng/mL
same,"AlbuBChE serum concentration, individual animals","1.0 mg/kg IM, 168 hr post dose",<LLOQ (2×) and 39.5 ng/mL
same,Mean AlbuBChE serum concentration,"1.0 mg/kg IM, 168 hr post dose",<LLOQ
same,"AlbuBChE serum concentration, individual animals","1.0 mg/kg IM, 216 hr post dose",<LLOQ
same,Mean AlbuBChE serum concentration,"1.0 mg/kg IM, 216 hr post dose",<LLOQ
same,"AlbuBChE serum concentration, individual animals","1.0 mg/kg IM, 264 hr post dose",<LLOQ
same,Mean AlbuBChE serum concentration,"1.0 mg/kg IM, 264 hr post dose",<LLOQ
same,tmax,1.0 mg/kg IM,3 h
same,"AUC % Extrap, individual animals",5 mg/kg IM,1.86% and 0.938% and 1.85%
same,"AUC(0-t), individual animals",5 mg/kg IM,201.754 µg·h/mL and 437.848 µg·h/mL and 235.983 µg·h/mL
same,"AUC(0-∞), individual animals",5 mg/kg IM,205.584 µg·h/mL and 441.992 µg·h/mL and 240.442 µg·h/mL
same,"Cmax, individual animals",5 mg/kg IM,6016 ng/mL and 17687 ng/mL and 6530 ng/mL
same,"Tmax, individual animals",5 mg/kg IM,6 h
same,"t½, individual animals",5 mg/kg IM,63.4 h and 56.4 h and 65.5 h
same,Dose Normalized AUC(0-∞),5.0 mg/kg IM,59201
same,Dose Normalized Cmax,5.0 mg/kg IM,2016
same,Mean AUC % Extrap,5.0 mg/kg IM,1.55%
same,Mean AUC(0-t),5.0 mg/kg IM,291.862 µg·h/mL
same,Mean AUC(0-∞),5.0 mg/kg IM,296.006 µg·h/mL
same,Mean Cmax,5.0 mg/kg IM,10078 ng/mL
same,Mean t½,5.0 mg/kg IM,62 h and 61.8 h
same,"AlbuBChE serum concentration, individual animals","5.0 mg/kg IM, 1 hr post dose",2580.0 ng/mL and 6570.9 ng/mL and 3821.0 ng/mL
same,Mean AlbuBChE serum concentration,"5.0 mg/kg IM, 1 hr post dose",4324 ng/mL
same,"AlbuBChE serum concentration, individual animals","5.0 mg/kg IM, 3 hr post dose",4899.0 ng/mL and 12683.9 ng/mL and 6024.0 ng/mL
same,Mean AlbuBChE serum concentration,"5.0 mg/kg IM, 3 hr post dose",7869 ng/mL
same,"AlbuBChE serum concentration, individual animals","5.0 mg/kg IM, 6 hr post dose",6016.0 ng/mL and 17686.8 ng/mL and 6530.3 ng/mL
same,Mean AlbuBChE serum concentration,"5.0 mg/kg IM, 6 hr post dose",10078 ng/mL
same,"AlbuBChE serum concentration, individual animals","5.0 mg/kg IM, 12 hr post dose",4178.0 ng/mL and 11105.8 ng/mL and 5091.0 ng/mL
same,Mean AlbuBChE serum concentration,"5.0 mg/kg IM, 12 hr post dose",6792 ng/mL
same,"AlbuBChE serum concentration, individual animals","5.0 mg/kg IM, 24 hr post dose",2836.0 ng/mL and 5034.0 ng/mL and 3325.0 ng/mL
same,Mean AlbuBChE serum concentration,"5.0 mg/kg IM, 24 hr post dose",3732 ng/mL
same,"AlbuBChE serum concentration, individual animals","5.0 mg/kg IM, 36 hr post dose",1572.0 ng/mL and 2929.0 ng/mL and 1901.0 ng/mL
same,Mean AlbuBChE serum concentration,"5.0 mg/kg IM, 36 hr post dose",2134 ng/mL
same,"AlbuBChE serum concentration, individual animals","5.0 mg/kg IM, 48 hr post dose",1329.7 ng/mL and 2644.4 ng/mL and 1604.9 ng/mL
same,Mean AlbuBChE serum concentration,"5.0 mg/kg IM, 48 hr post dose",1860 ng/mL
same,"AlbuBChE serum concentration, individual animals","5.0 mg/kg IM, 72 hr post dose",637.7 ng/mL and 1190.8 ng/mL and 723.6 ng/mL
same,Mean AlbuBChE serum concentration,"5.0 mg/kg IM, 72 hr post dose",851 ng/mL
same,"AlbuBChE serum concentration, individual animals","5.0 mg/kg IM, 96 hr post dose",415.1 ng/mL and 732.6 ng/mL and 454.7 ng/mL
same,Mean AlbuBChE serum concentration,"5.0 mg/kg IM, 96 hr post dose",534.1 ng/mL and 534 ng/mL
same,"AlbuBChE serum concentration, individual animals","5.0 mg/kg IM, 128 hr post dose",217.2 ng/mL and 325.9 ng/mL and 224.3 ng/mL
same,Mean AlbuBChE serum concentration,"5.0 mg/kg IM, 128 hr post dose",255.8 ng/mL and 256 ng/mL
same,"AlbuBChE serum concentration, individual animals","5.0 mg/kg IM, 144 hr post dose",158.4 ng/mL and 254.7 ng/mL and 163.3 ng/mL
same,Mean AlbuBChE serum concentration,"5.0 mg/kg IM, 144 hr post dose",192.1 ng/mL and 192 ng/mL
same,"AlbuBChE serum concentration, individual animals","5.0 mg/kg IM, 168 hr post dose",118.9 ng/mL and 165.5 ng/mL and 130.4 ng/mL
same,Mean AlbuBChE serum concentration,"5.0 mg/kg IM, 168 hr post dose",138.3 ng/mL and 138 ng/mL
same,"AlbuBChE serum concentration, individual animals","5.0 mg/kg IM, 216 hr post dose",73.7 ng/mL and 91.6 ng/mL and 79.4 ng/mL
same,Mean AlbuBChE serum concentration,"5.0 mg/kg IM, 216 hr post dose",81.6 ng/mL
same,"AlbuBChE serum concentration, individual animals","5.0 mg/kg IM, 264 hr post dose",41.9 ng/mL and 50.9 ng/mL and 47.2 ng/mL
same,Mean AlbuBChE serum concentration,"5.0 mg/kg IM, 264 hr post dose",46.7 ng/mL
same,tmax,5.0 mg/kg IM,6 h
